From patent US20220023399A1, “BLOOD COMPONENT POTENTIATION OF LYTIC PROTEIN ANTI-BACTERIAL ACTIVITY AND METHODS AND USES THEREOF” (priority 2017, published 2022)

Experiments:
[1] = tested on: staphylococci (strain not given); experiment: Checkerboard analysis of PlySs2/CF-301 with AMPs, antimicrobial proteins and albumins in heat-inactivated human serum; format: cell-based, S. aureus; details: in combination with PlySs2/CF-301
[2] = tested on: S. aureus strain ATCC 700699; experiment: Confocal/deconvolution microscopy of cell surface binding; details: 0.25×MIC
[3] = tested on: S. aureus strain MW2; experiment: Fluorescence microscopy of binding after preincubation in different serum types; details: 0.25×MIC
Method: The effect of preincubation of staphylococci with multiple different serum types and MHB on subsequent labeling with a 0.25×MIC amount of CF-301^RHD was also examined by fluorescence microscopy (FIG. 11).
Fluorescence microscopy: Binding of PlySs2 (CF-301) to the Bacterial Cell Surface in Different Serum Environments. Mid-log phase MRSA strain MW2 was suspended at 1×10^7 CFU/mL in either CAMHB or 100% serum from either human (Sigma-Aldrich), rabbit (Gibco), rat (BioreclamationIVT), or mouse (BioreclamationIVT) sources and incubated for 30 minutes at 37° C. An additional mouse serum sample was also tested, containing 40 mg/mL HSA (Albumin Biosciences). After the preincubation, bacteria were washed with 1× phosphate-buffered saline (PBS) and resuspended in 50 μl of PBS and attached to the surface of a poly-L-lysine-coated cover glass. The cells were washed and treated with CF-301^RHOD (2 μg/mL in PBS) for 10 minutes before washing and counterstaining with DAPI. Slides were mounted in 50% glycerol and 0.1% p-phenylenediamine in PBS, pH 8. Fluorescence microscopy was performed using a Nikon Eclipse E400 microscope, equipped with a Nikon 100×/1.25 oil immersion lens, and a Retiga EXi fast 1394 camera (QImaging). QCapture Pro version 5.1.1.14 software (QImaging) was used for image capture and processing.

[4] = tested on: S. aureus (strain not given); experiment: MIC analysis of various lysins, chimeric lysins and antibiotics in MHB and human serum; format: cell-based; details: Table 14 (Example 2); for Fold decrease in MIC: human serum vs MHB
Method: To further evaluate the binding domain relevance to the serum component effect, various chimerics were constructed by replacing or swapping out one binding domain for another. Chimeric lysins having the Sal1 CHAP catalytic domain with ClyS binding domain, PlySs2 (CF-301) binding domain, or lysostaphin binding domain were assayed for MIC using MHB versus human serum. the results are depicted below in TABLE 14.

[5] = tested on: S. aureus (strain not given); experiment: as above; format: cell-based; details: Table 2; for Fold decrease in MIC: human serum vs MHB

B1: Lysozyme (Human, recombinant): human lysozyme, recombinant expressed in rice (protein, UniProt P61626 19-148, looked up)
Lysozyme C: KVFERCELARTLKRLGMDGYRGISLANWMCLAKWESGYNTRATNYNAGDRSTDYGIFQINSRYWCNDGKTPGAVNACHLSCSALLQDNIADAVACAKRVVRDPQGIRAWVAWRNRCQNRDVRQYVQGCGV
B1 gave a ΣFICavg [1] of at most 0.05.

B2: Lysozyme (Human neutrophil derived): lysozyme, human neutrophil-derived (protein, UniProt P61626 19-148, looked up)
Lysozyme C: B1 Lysozyme C
For B2, the ΣFICavg [1] was at most 0.056.

B3: CF-301^RHD: rhodamine-labeled PlySs2 (CF-301) (conjugate)
chain: MTTVNEALNNVRAQVGSGVSVGNGECYALASWYERMISPDATVGLGAGVGWVSGAIGDTISAKNIGSSYNWQANGWTVSTSGPFKAGQIVTLGATPGNPYGHVVIVEAVDGDRLTILEQNYGGKRYPVRNYYSAASYRQQVVHYITPPGTVAQSAPNLAGSRSYRETGTMTVTVDALNVRRAPNTSGEIVAVYKRGESFDYDTVIIDVNGYVWVSYIGGSGKRNYVATGATKDGKRFGNAWGTFK
In the case of B3, the “labeling of the staphylococcal cell wall” value ([2]; absence of the HSA pretreatment) is reported as “no labeling was observed”, the “labeling of the staphylococcal cell wall” value ([2]; cells pretreated with HSA at 40 mg/mL) is reported as “extensive labeling” and the “labeling of S. aureus strain MW2” value ([3]; mouse serum supplemented with HSA) is reported as “restore high-level binding and fluorescence”. For the same molecule, the “labeling of S. aureus strain MW2” value ([3]; preincubation with human serum or rabbit serum) was “extensive labeling” and the “labeling of S. aureus strain MW2” value ([3]; preincubation with rat serum, mouse serum or MHB alone) was “poorly labeled cells”.

B4: Sal1: anti-staphylococcal lysin, SEQ ID NO:5 (protein)
chain: MAKTQAEINKRLDAYAKGTVDSPYRIKKATSYDPSFGVMEAGAIDADGYYHAQCQDLITDYVLWLTDNKVRTWGNAKDQIKQSYGTGFKIHENKPSTVPKKGWIAVFTSGSYQQWGHIGIVYDGGNTSTFTILEQNWNGYANKKPTKRVDNYYGLTHFIEIPVKAGTTVKKETAKKSASKTPAPKKKATLKVSKNHINYTMDKRGKKPEGMVIHNDAGRSSGQQYENSLANAGYARYANGIAHYYGSEGYVWEAIDAKNQIAWHTGDGTGANSGNFRFAGIEVCQSMSASDAQFLKNEQAVFQFTAEKFKEWGLTPNRKTVRLHMEFVPTACPHRSMVLHTGFNPVTQGRPSQAIMNKLKDYFIKQIKNYMDKGTSSSTVVKDGKTSSASTPATRPVTGSWKKNQYGTWYKPENATFVNGNQPIVTRIGSPFLNAPVGGNLPAGATIVYDEVCIQAGHIWIGYNAYNGNRVYCPVRTCQGVPPNHIPGVAWGVFK
modifications: Staphylococcus
With B4 the “Minimal inhibitory concentration, MHB” value [4] was 2 µg/mL, the “Fold decrease in MIC” value [4] was 32 and the “Minimal inhibitory concentration, Human serum” value [4] was 0.06 µg/mL. For the same molecule, the “Minimal inhibitory concentration, MHB” value [5] was 2 µg/mL, the “Fold decrease in MIC” value [5] was 32 and the “Minimal inhibitory concentration, Human serum” value [5] was 0.06 µg/mL.

B5: Serum albumin (Rat, from serum): rat serum albumin (protein, UniProt P02770 25-608, looked up)
Albumin: EAHKSEIAHRFKDLGEQHFKGLVLIAFSQYLQKCPYEEHIKLVQEVTDFAKTCVADENAENCDKSIHTLFGDKLCAIPKLRDNYGELADCCAKQEPERNECFLQHKDDNPNLPPFQRPEAEAMCTSFQENPTSFLGHYLHEVARRHPYFYAPELLYYAEKYNEVLTQCCTESDKAACLTPKLDAVKEKALVAAVRQRMKCSSMQRFGERAFKAWAVARMSQRFPNAEFAEITKLATDVTKINKECCHGDLLECADDRAELAKYMCENQATISSKLQACCDKPVLQKSQCLAEIEHDNIPADLPSIAADFVEDKEVCKNYAEAKDVFLGTFLYEYSRRHPDYSVSLLLRLAKKYEATLEKCCAEGDPPACYGTVLAEFQPLVEEPKNLVKTNCELYEKLGEYGFQNAVLVRYTQKAPQVSTPTLVEAARNLGRVGTKCCTLPEAQRLPCVEDYLSAILNRLCVLHEKTPVSEKVTKCCSGSLVERRPCFSALTVDETYVPKEFKAETFTFHSDICTLPDKEKQIKKQTALAELVKHKPKATEDQLKTVMGDFAQFVDKCCKAADKDNCFATEGPNLVARSKEALA
B5 was tested, and the ΣFICavg [1] was at least 1.16.

B6: Lactoferrin (Bovine colostrum): lactoferrin, bovine colostrum (Sigma-Aldrich) (protein, UniProt P24627 20-708, looked up)
Lactotransferrin: APRKNVRWCTISQPEWFKCRRWQWRMKKLGAPSITCVRRAFALECIRAIAEKKADAVTLDGGMVFEAGRDPYKLRPVAAEIYGTKESPQTHYYAVAVVKKGSNFQLDQLQGRKSCHTGLGRSAGWIIPMGILRPYLSWTESLEPLQGAVAKFFSASCVPCIDRQAYPNLCQLCKGEGENQCACSSREPYFGYSGAFKCLQDGAGDVAFVKETTVFENLPEKADRDQYELLCLNNSRAPVDAFKECHLAQVPSHAVVARSVDGKEDLIWKLLSKAQEKFGKNKSRSFQLFGSPPGQRDLLFKDSALGFLRIPSKVDSALYLGSRYLTTLKNLRETAEEVKARYTRVVWCAVGPEEQKKCQQWSQQSGQNVTCATASTTDDCIVLVLKGEADALNLDGGYIYTAGKCGLVPVLAENRKSSKHSSLDCVLRPTEGYLAVAVVKKANEGLTWNSLKDKKSCHTAVDRTAGWNIPMGLIVNQTGSCAFDEFFSQSCAPGADPKSRLCALCAGDDQGLDKCVPNSKEKYYGYTGAFRCLAEDVGDVAFVKNDTVWENTNGESTADWAKNLNREDFRLLCLDGTRKPVTEAQSCHLAVAPNHAVVSRSDRAAHVKQVLLHQQALFGKNGKNCPDKFCLFKSETKNLLFNDNTECLAKLGGRPTYEEYLGTEYVTAIANLKKCSTSPLLEACAFLTR
For B6, the ΣFICavg [1] was at least 1.16.

B7: ClyS: chimeric lysin active against Staphylococci, without SH3-type binding domain; SEQ ID NO:4 (protein)
chain: METLKQAESYIKSKVNTGTDFDGLYGYQCMDLAVDYIYHVTDGKIRMWGNAKDAINNSFGGTATVYKNYPAFRPKYGDVVVWTTGNFATYGHIAIVTNPDPYGDLQYVTVLEQNWNGNGIYKTELATIRTHDYTGITHFIRPNFATESSVKKKDTKKKPKPSNRDGLNKDKIVYDRTNINYNMVLQGKSASKITVGSKAPYNLKWSKGAYFNAKIDGLGATSATRYGDNRTNYRFDVGQAVYAPGTLIYVFEIIDGWCRIYWNNHNEWIWHERLIVKEVF
modifications: Staphlyococcus
In the case of B7, the “Minimal inhibitory concentration, MHB” value [4] is reported as 8 µg/mL, the “Fold decrease in MIC” value [4] is reported as 2 and the “Minimal inhibitory concentration, Human serum” value [4] is reported as 4 µg/mL. The “Minimal inhibitory concentration, MHB” value [5] was 8 µg/mL, the “Fold decrease in MIC” value [5] was 2 and the “Minimal inhibitory concentration, Human serum” value [5] was 4 µg/mL.

B8: Lactoferrin (Human milk): lactoferrin, human milk (Sigma-Aldrich) (protein, UniProt P02788 20-710, looked up)
Lactotransferrin: GRRRSVQWCAVSQPEATKCFQWQRNMRKVRGPPVSCIKRDSPIQCIQAIAENRADAVTLDGGFIYEAGLAPYKLRPVAAEVYGTERQPRTHYYAVAVVKKGGSFQLNELQGLKSCHTGLRRTAGWNVPIGTLRPFLNWTGPPEPIEAAVARFFSASCVPGADKGQFPNLCRLCAGTGENKCAFSSQEPYFSYSGAFKCLRDGAGDVAFIRESTVFEDLSDEAERDEYELLCPDNTRKPVDKFKDCHLARVPSHAVVARSVNGKEDAIWNLLRQAQEKFGKDKSPKFQLFGSPSGQKDLLFKDSAIGFSRVPPRIDSGLYLGSGYFTAIQNLRKSEEEVAARRARVVWCAVGEQELRKCNQWSGLSEGSVTCSSASTTEDCIALVLKGEADAMSLDGGYVYTAGKCGLVPVLAENYKSQQSSDPDPNCVDRPVEGYLAVAVVRRSDTSLTWNSVKGKKSCHTAVDRTAGWNIPMGLLFNQTGSCKFDEYFSQSCAPGSDPRSNLCALCIGDEQGENKCVPNSNERYYGYTGAFRCLAENAGDVAFVKDVTVLQNTDGNNNEAWAKDLKLADFALLCLDGKRKPVTEARSCHLAMAPNHAVVSRMDKVERLKQVLLHQQAKFGRNGSDCPDKFCLFQSETKNLLFNDNTECLARLHGKTTYEKYLGPQYVAGITNLKKCSTSPLLEACEFLRK
Work on B8 yielded a ΣFICavg [1] of at least 1.16.
